In patent US8263344B2, “Compounds regulating calreticulin, KDEL receptor and/or Erp-57 cell surface exposure and uses thereof to evaluate the efficiency of a cancer treatment” (Institut Gustave Roussy, priority 2006, dated 2012):

Key:
[1] = tested on: CT26 tumour cells; assay: Anti-tumour vaccination with treated (dying) CT26 cells and challenge with live tumour cells; assay type: in vivo, BALB/c mice
[2] = tested on: CT26 cells; assay: Phagocytosis of tumour cells by dendritic cells (DC); assay type: cell-based, BALB/c mice
Procedure: BM cells were flushed from the tibias and femurs of BALB/c mice with culture medium composed of RPMI 1640 medium (Invitrogen Life Technologies) supplemented with 10% heat-inactivated FBS (Invitrogen), sodium pyruvate, 50 μM 2-ME (Sigma), 10 mM HEPES (pH 7.4), and penicillin/streptomycin (Invitrogen). After one centrifugation, BM cells were resuspended in Tris-ammonium chloride for 2 min to lyse RBC. After one more centrifugation, BM cells (1×10^6 cells/ml) were cultured in medium supplemented with 100 ng/ml recombinant mouse FLT3 ligand (R&D systems) in 6-well plates (Costar Corning). After 7 days, the non-adherent and loosely adherent cells were harvested with Versene, washed and transferred in 12-well plates (1.5×10^6 cells/plate) for cocultures with tumour cells.
In 12-well plates, […] adherent CT26 cells were labelled with Celltracker Green (Calbiochem) and then incubated with drugs. In some experiments viable CT26 were coated with 2 μg/10^6 cells of chicken anti-CRT antibody (ABR affinity bioreagents) or an isotype control for 30 min prior to washing and feeding to dendritic cells Cs. Alternatively CT26 cells were coated with 2 μg/10^6 cells of rCRT on ice for 30 min and washed twice prior to addition to dendritic cells. Cells were then harvested, washed three times with medium supplemented with FBS and cocultured with immature DC for 2 hours at a ratio of 1:1 and 1:5. At the end of the incubation, cells were harvested with versene, pooled with non-adherent cells present in the supernatant, washed and stained with CD11c-FITC antibody. Phagocytosis was assessed by FACS analysis of double positive cells. Phagocytic indexes refer to the ratio between values obtained at 4° C. and values obtained at 37° C. of co-incubation between DC and tumour cells.

[3] = tested on: CT26 tumours; assay: Single intratumoural injection into established CT26 tumours, immunocompetent mice; assay type: in vivo, BALB/c mice; conditions: for therapeutic effect of intratumoural injection, single agent, immunocompetent mice: established 14-day-old CT26 tumours
[4] = tested on: CT26 tumours; assay: Single intratumoural injection into established CT26 tumours, athymic mice; parameters: species or system nu/nu Balb/c mice; conditions: mouse, in vivo
[5] = tested on: HeLa cells; assay: Surface ERp57 detection (immunofluorescence, flow cytometry); assay type: cell-based, human; conditions: 2 h; MTX 1 μM, Tau 150 nM
Procedure: HeLa cells were cultured on cover slips (in RPM1160 medium supplemented with 10% fetal calf serum, L-glutamine and antibiotics), in the absence (control) or in the presence of 1 μM mitoxantrone (MTX, Sigma) for 2 h. For the intracellular stainings, HeLa cells were fixed and permeabilised by means of Cytofix/Cytoperm kit from Becton Dickinson according to the manufacturer's instructions. For the surface stainings, HeLa cells were fixed with paraformadehyde (4% w/v) on ice for 5 min. […] Nuclei were labelled with DAPI mounting medium (Vectashield). Fluorescence microscopy was analyzed with a Leica IRE2 equipped with a DC300F camera. Size bars represent 10 μm.
HeLa cells were treated with or without mitoxantrone (MTX, 1 μM) or tautomycin (Tau, 150 nM, Sigma) for 2 h. Cells were washed twice with PBS and fixed in PFA (4% w/v) for 5 min. HeLa cells were stained with an antibody against Erp57 (pAb from Abcam, ab10827) at 1:200 dilution or isotype control, in staining buffer (PBS, 1% FCS) for 30 min on ice, followed by washing. An anti-rabbit Alexa fluor 488 immunoglobulin conjugate (Molecular Probes-Invitrogen) diluted at 1:500 was added for an additional 30 min on ice before washing and analysed by flow cytometry (FACScan, Becton Dickinson). […] The CellQuest software was used to analyse the mean fluorescence intensity (MFI) and the percentage of ERp57 positive cells.
FIG. 12: ERp57 exposure depends on the activation of a caspase. • (A) HeLa cells were treated with MTX (1 μM) for 2 h in the presence or absence of 50 μM zVAD.fmk. The MFI of surface Erp57 positive cells was analysed as described in FIG. 9. • (B) HCT116 parental cells stably transfected with either a vector encoding p35 (Stennicke et al., 2002; Date et al., 2003) or with a PCMV vector (Sigma) as control, were treated with MTX (1 μM) for 2 h. The MFI of surface Erp57 positive cells was analysed as described in FIG. 9. • (C) HCT116 cells were pre-incubated in the presence of 50 μM biotinylated VAD.fmk (Calbiochem) for 2 h. […]

[6] = tested on: CT26 cytoplasts; assay: CRT exposure on enucleated cells (cytoplasts); assay type: cell-based, murine
Procedure: FIG. 5A: CRT exposure after anthracyclin treatment in the absence of a nucleus. Intact cells or enucleated cells (cytoplasts) were treated for 2 hours with mitoxantrone, followed by immunofluorescence detection of CRT exposure. Inserts show the effective removal of Hoechst 33342-stainable nuclei from the cytoplasts.
Trypsinized CT26 cells were enucleated as described in the publication of Andreau, K. et al. Contagious apoptosis facilitated by the HIV-1 envelope. Fusion-induced cell-to-cell transmission of a lethal signal. J. Cell Sci. 117, 5643-53 (2004). Briefly, cells were treated in 2 ml of complete RPMI medium containing cytochalasin B (10 μg/ml; Sigma) and DNase I (80 U/ml; Sigma). Cell suspension was adjusted to a final concentration of 5×10^6/ml and incubated at 37° C. for 45 minutes before being layered onto a previously prepared discontinuous Ficoll (Pharmacia) density gradient (3 ml of 100%, in 1 ml of 90% and 3 ml of 55% Ficoll Paque layer containing 5 μg/ml cytochalasin B and 40 U/ml DNase I; gradients were prepared in ultracentrifuge tubes and pre-equilibrated at 37° C. in a CO2 incubator overnight). […] Then the cell surface CRT was detected (see materials and methods) and the viability was determined by with propidium iodine staining (2 μg/ml, Sigma) for 5 min followed by cytofluorometric analysis. […] Phagocytosis was assessed by FACS analysis of double positive cells.

[7] = tested on: MCA205, B16F10, J558; assay: CRT exposure on a panel of murine tumour cell lines; assay type: cell-based
[8] = tested on: HeLa, A549, HCT116; assay: CRT exposure on a panel of human tumour cell lines; assay type: cell-based
[9] = tested on: CT26 cells; assay: Local immune response: footpad injection, IFN-γ secretion by draining lymph node cells; assay type: in vivo, Balb/c mice; conditions: foot pad injection
Procedure: FIG. 4C: Exogenous supply of CRT enhances the immunogenicity of CRT-negative dying cells. CT26 cells lacking CRT expression after depletion of CRT with a siRNA and mitoxantrone treatment or after mitomycin treatment were coated with rCRT (inserts) and then injected in the food pad, followed by assessment of the IFN-γsecretion by cells from the draining lymph nodes as in FIG. 4B.
Tumours were evaluated weekly, using a caliper.

[10] = tested on: DC; assay: DC maturation ex vivo; assay type: cell-based; conditions: rCRT alone, over a large range of concentrations

Molecule: O=C1c2c(O)ccc(O)c2C(=O)c2c(NCCNCCO)ccc(NCCNCCO)c21 [mitoxantrone]
- immunogenic apoptosis / immunogenic cell death (protection against tumour growth) ([1]; dying CT26 cells injected into one flank, rechallenge with live tumour cells in opposite flank 8 days later): elicited immunogenic cell death
- phagocytosis of treated tumour cells by DC ([2]; within a few hours after treatment): acquired the property to be phagocytosed by DC
- therapeutic effect of intratumoural injection, single agent, immunocompetent mice [3]: permanent regression in some but not all cases
- therapeutic effect of intratumoural injection, single agent, nu/nu mice [4]: no cure
- surface exposure of ERp57 [5]: appear on the surface
- time to CRT exposure in enucleated cells (cytoplasts) [6]: ≤ 1 h
- CRT exposure, murine tumour cell lines [7]: induced CRT exposure
- CRT exposure, human tumour cell lines [8]: induced CRT exposure

B1: rCRT: recombinant CRT protein (rCRT), which binds to the surface of the cells (protein, UniProt P27797 18-417, looked up)
Calreticulin: EPAVYFKEQFLDGDGWTSRWIESKHKSDFGKFVLSSGKFYGDEEKDKGLQTSQDARFYALSASFEPFSNKGQTLVVQFTVKHEQNIDCGGGYVKLFPNSLDQTDMHGDSEYNIMFGPDICGPGTKKVHVIFNYKGKNVLINKDIRCKDDEFTHLYTLIVRPDNTYEVKIDNSQVESGSLEDDWDFLPPKKIKDPDASKPEDWDERAKIDDPTDSKPEDWDKPEHIPDPDAKKPEDWDEEMDGEWEPPVIQNPEYKGEWKPRQIDNPDYKGTWIHPEIDNPEYSPDPSIYAYDNFGVLGLDLWQVKSGTIFDNFLITNDEAYAEEFGNETWGVTKAAEKQMKDKQDEEQRLKEEEEDKKRKEEEEAEDKEDDEDKDEDEEDEEDKEEDEEEDVPGQAKDEL
- anti-cancer immune response to rCRT-coated cells without prior treatment with cell death inducers ([1]; mouse, in vivo): failed to elicit an anti-cancer immune response
- anti-tumour immune response to etoposide-treated cells coated with rCRT ([1]; mouse, in vivo): elicited a vigorous anti-tumour immune response
- immunogenicity of mitoxantrone-treated CT26 cells with CRT knock-down, complemented with rCRT ([1]; mouse, in vivo): restored
- phagocytosis by DC and CRT expression after CRT-specific siRNA, with addition of rCRT [2]: could reverse the defect
- effect of rCRT injected into a distant site on intratumourally injected etoposide ([3]; contralateral subcutaneous injection): did not ameliorate the antitumoural effects
- therapeutic effect of intratumoural injection, single agent, immunocompetent mice [3]: no major therapeutic effect
- therapeutic effect combined with a cell death inducer (etoposide or mitomycin C), immunocompetent mice ([3]; intratumoural): able to cause tumour regression
- therapeutic effect of intratumoural injection, single agent, nu/nu mice [4]: no major therapeutic effect
- immunogenicity (interferon production by T cells from popliteal lymph node) of mitomycin-treated cells coated with rCRT [9]: greatly enhanced the immunogenicity
- DC maturation [10]: could not promote DC maturation
